Test results taken from paper PMC3196588.
One block for each substance: values may come before it.

Key:
[1] = target: C3S mutant of human galectin-1 (human) (UniProt P09382); experiment: affinity chromatography; galectin-1 C3S coupled to 1 ml NHS-activated Hi-Trap column; 0.1 ml serum from metastatic breast cancer patients in 1.9 ml PBS circulated 30 min on ice; wash 32 column volumes PBS; elution with 150 mM lactose; bound proteins identified by SDS-PAGE, MALDI-TOF MS and western blot, IgM and haptoglobin quantitated by ELISA
[2] = target: C3S mutant of human galectin-1 (human) (UniProt P09382); experiment: affinity chromatography; galectin-1 C3S (or its site B mutants) coupled to 1 ml NHS-activated Hi-Trap column; 0.1 ml serum from healthy individuals in 1.9 ml PBS circulated 30 min on ice; wash 32 column volumes PBS; elution with 150 mM lactose; bound proteins identified by SDS-PAGE, MALDI-TOF MS and western blot, IgM and haptoglobin quantitated by ELISA
[3] = target: C3S mutant of human galectin-1 (human) (UniProt P09382); experiment: fluorescence polarisation; fluorescence anisotropy inhibition assay: haptoglobin as inhibitor of the interaction of galectin-1 or mutants with a fluorescein tagged thiodigalactoside-amid (tdga) probe; Kd from inhibitory potency, haptoglobin counted as the dimer
[4] = target: C3S mutant of human galectin-1 (human) (UniProt P09382); experiment: affinity chromatography; galectin-1 C3S (or C3S N34D) coupled to 1 ml column; 2 mg haptoglobin (pooled from human plasma) in 2 ml PBS circulated 30 min on ice; wash 32 column volumes PBS; elution with 150 mM lactose; unbound fraction rechromatographed

percent of IgM bound to galectin-1 (mean, cancer sera) [1]: 28% | percent of IgM bound to galectin-1 (mean, healthy sera) [2]: 37%
Substance: IgM (human serum) (from UniProt P01591 23-159) (complex)

Kd [3]: < 1 µM
Substance: galectin-1 binding fraction of haptoglobin (from UniProt P00738 19-160; P00738 162-406) (complex)

percent bound to the column when rechromatographed [4]: < 1%
Substance: galectin-1 non-binding fraction of haptoglobin (from UniProt P00738 19-160; P00738 162-406) (complex)

percent bound to the column [4]: 30% | Kd [3]: 2.5 µM | percent of haptoglobin bound to galectin-1 (average, cancer sera) [1]: 50% | percent of haptoglobin bound to galectin-1 (average, control sera) [2]: 30%
Substance: haptoglobin (human, unfractionated) (from UniProt P00738 19-160; P00738 162-406) (complex)
